Test results from PMC4404499 (The Biochemical journal, 2014).
Where a chain is given by its changes, count along the chain named.

Tests used:
Experiment in all cases: pull-down
GST-tagged TRIM3 N48A = biological target: T1, GST-tagged TRIM3 N48A (mouse, UniProt Q9R1R2 1-744, N48A)
T1 sequence (looked up): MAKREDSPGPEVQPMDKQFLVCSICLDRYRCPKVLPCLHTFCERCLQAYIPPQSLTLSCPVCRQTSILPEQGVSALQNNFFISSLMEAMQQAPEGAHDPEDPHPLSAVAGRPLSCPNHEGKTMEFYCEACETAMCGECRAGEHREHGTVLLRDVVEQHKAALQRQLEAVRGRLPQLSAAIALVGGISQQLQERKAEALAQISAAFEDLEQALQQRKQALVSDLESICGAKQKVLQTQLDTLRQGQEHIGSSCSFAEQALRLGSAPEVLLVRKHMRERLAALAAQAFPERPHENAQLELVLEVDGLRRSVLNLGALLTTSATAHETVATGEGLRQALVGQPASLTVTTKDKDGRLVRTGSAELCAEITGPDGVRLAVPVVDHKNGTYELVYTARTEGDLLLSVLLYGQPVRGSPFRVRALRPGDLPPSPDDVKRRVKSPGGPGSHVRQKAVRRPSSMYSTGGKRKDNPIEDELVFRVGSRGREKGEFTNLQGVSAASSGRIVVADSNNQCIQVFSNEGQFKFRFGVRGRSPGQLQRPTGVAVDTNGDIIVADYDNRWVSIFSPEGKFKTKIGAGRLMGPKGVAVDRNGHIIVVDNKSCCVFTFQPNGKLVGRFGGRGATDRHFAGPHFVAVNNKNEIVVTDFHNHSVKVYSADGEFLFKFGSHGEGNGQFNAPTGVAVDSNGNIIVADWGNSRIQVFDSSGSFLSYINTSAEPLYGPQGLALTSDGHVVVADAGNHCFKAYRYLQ

GST-tagged TRIM3 Y49A = biological target: T2, GST-tagged TRIM3 Y49A (mouse, UniProt Q9R1R2 1-744, Y49A)
T2 sequence (looked up): T1 sequence (looked up) with A48N, Y49A

GST-tagged TRIM3 L55A = biological target: T3, GST-tagged TRIM3 L55A (mouse, UniProt Q9R1R2 1-744, L55A)
T3 sequence (looked up): T1 sequence (looked up) with A48N, L55A

GST-tagged TRIM3 I50A = biological target: T4, GST-tagged TRIM3 I50A (mouse, UniProt Q9R1R2 1-744, I50A)
T4 sequence (looked up): T1 sequence (looked up) with A48N, I50A

Measured: binding result

B1: His-tagged p21 (wild-type) (natural protein, UniProt P39689 1-159, looked up)
chain: MSNPGDVRPVPHRSKVCRCLFGPVDSEQLRRDCDALMAGCLQEARERWNFDFVTETPLEGNFVWERVRSLGLPKVYLSPGSRSRDDLGGDKRPSTSSALLQGPAPEDHVALSLSCTLVSERPEDSPGGPGTSQGRKRRQTSLTDFYHSKRRLVFCKRKP
binds: all assays above
